The text below walks through data of patent US20030203415A1 (published 2003).

The target of test [1] is T1, H6NA3 (UniProt P06731 35-144; P06731 499-590, limits assumed).
T1 construct: domain: N domain;domain: A3 domain; recombinant truncated target
T1 sequence: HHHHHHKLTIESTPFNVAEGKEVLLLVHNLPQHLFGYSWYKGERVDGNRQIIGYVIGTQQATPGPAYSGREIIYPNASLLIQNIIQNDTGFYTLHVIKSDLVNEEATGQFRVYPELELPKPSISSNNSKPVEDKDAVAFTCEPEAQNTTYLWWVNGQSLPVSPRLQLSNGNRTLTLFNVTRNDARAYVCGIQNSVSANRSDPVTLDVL
The experiment in a line: fluorescence anisotropy, competition with unlabeled cT84.66. The procedure: (§1) Dissociation constants were determined using fluorescence anisotropy, through direct binding measurements and competition experiments. In direct binding assays, the concentration of the fluorescein-labeled peptide is held constant and the concentration of H6NA3 is varied. In the competition experiment, the concentration of the fluorescein-labeled peptide and the H6NA3 target are held constant and the concentration of a competitor (cT84.66, unlabeled) is varied. The change in anisotropy is fit to the appropriate equation via nonlinear regression to obtain the apparent Kd.
For orientation: In fluorescence polarisation assays a small probe gives low polarisation when free and higher when bound to something large.

The target in test [2] is T1, H6NA3. The experiment in a line: fluorescence anisotropy. The procedure:
as §1

For test [3], the target named is T1, H6NA3. Description: fluorescence anisotropy, direct binding. The procedure:
as §1

Ends that are not written are not given here. fluorescein = fluorescein label attached through NHS-fluorescein to the ε-amino side group of the C-terminal lysine

B1: P-E01 (peptide)
peptide: SNWDCMFGAEGWACSPWAPGGEGGGSK(fluorescein)-NH2
modifications: not fully specified (bridges); printed as SNWDCMFGAEGWACSPWAPGGEGGGSK-CONH2; cysteine pairing not given here; also: fluorescein on C-terminal Lys ε-amino in labelled aliquots
notes: synthetic 27-mer
For orientation: Kd means the equilibrium constant for the complex coming apart. A high value points to weaker binding. In the case of B1, the Kd in the test with H6NA3 [1] stood at 5.3 µM; with H6NA3 [2], 7 µM; with H6NA3 [3], 6.9 µM.
